Experimental data taken from PMC9010756.

Biological target: GST-CGN(1–70) (GST-tagged cCGN, 1–70 amino acids) (canis (dog))
Experiment: pull-down

Chain of GST-CGN(1–70) (GST-tagged cCGN, 1–70 amino acids) (canis (dog)) (A7YH32 1-70): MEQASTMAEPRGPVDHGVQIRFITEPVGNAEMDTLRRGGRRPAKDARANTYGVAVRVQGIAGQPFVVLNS

For “GFP-hZO-1-Cter (1619–1748) (from UniProt Q07157 1619-1748) (domain or fragment)”, the fold stronger binding than larger fragments was > 4 fold.
